The test system of this data set is T1, MsmR1 (Paenibacillus polymyxa SC2-M1 (SC2 derivative)), ORF:0fff1571.
T1 sequence: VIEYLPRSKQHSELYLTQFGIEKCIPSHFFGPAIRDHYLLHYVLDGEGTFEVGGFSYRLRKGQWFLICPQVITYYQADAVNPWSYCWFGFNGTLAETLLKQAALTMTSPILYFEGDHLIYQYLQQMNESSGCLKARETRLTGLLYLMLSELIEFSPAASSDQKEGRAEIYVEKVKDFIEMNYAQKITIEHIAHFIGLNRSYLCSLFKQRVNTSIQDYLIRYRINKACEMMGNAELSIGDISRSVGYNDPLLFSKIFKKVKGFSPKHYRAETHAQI
Put plainly: EMSA. The following applies: Chemiluminescent EMSA kit (Beyotime); labeled probe about 0.4 uM, competitor about 4 uM, protein gradient; buffer, salt, pH and temperature not stated. In general terms: Mobility shift assays separate free from complexed probe on a gel.

For “ACCATTTCCCGGGCAATCGGCTGCCGGGTGCGAATGGAATCGCCCAAGTCCCCTCGTGCCAGTTCACTTAGATAGGTCCCATATTGCTGTAGCCACGGCTTATCCAGCCCTAATTGCTCACGCAGCGCCTGTTTGGACTGTTCCGTGGCCTTGTCCCCGAGTATCGTTTCTGCCGGATCACCGGGAATAGCATGAATAATCGAAAACACGATAAGCGTCATCCCCA (double strand) [oppC3 upstream fragment]”, the binding result is recorded as “binds”.

Turning to “ATATGATTTCTGTAGAACCTACTGCTATATTGTTGGATCTTATCAAGCTTTACACCATATGAACTTAGTTGACGCCTGCTACATAAAGATTCTTCTAAGTGCCTTTTTGGTGTGGATCTCTGATGATTATTATCTAAGAGAGGGGTTATTTTTCCCAA (double strand) [msmR1 promoter]”, the binding entry was “binds”.

Take “CAGAGGAAATGCATGTCCGTATTATCGGAGACAACACGATTTCCCGCAAAAATCATGCGGTCATTGTGTATGATCCGAAGAAACGCAACTTTTACTTGCTGCCAGGCGATTCGTCAGGCTTGGCGTATCACAATAACGAGGCGGTATATTCACCAGTGGAGCTGGCTGCTTATGACGTGATTCAGCTCGGGCGCAGCAAATTTATCTTTATTCCGCTGTGCGGCGCTCATTTCGAGTGGGA (double strand) [pppL upstream fragment]”: the binding result was “binds”.

For the sequence “CAGCAACGCACCTCAAGAGATTGCAGGTGTGAAGGTAGACAAAGTACTGGACTACTCGCAAGGCTTGGACGGACTTCCGCAGGAAAACGTACTCAAGTTTTTATTGGAGGACGGTTCTTGGTTCTGCCTGCGTCCTTCGGGCACAGAGCCTAAAATCAAAGTATACTTTGCAGTACGTGGTTCCTC (double strand) [PPSC2_23180 upstream fragment]”, the binding entry was “binds”.

As to “CCGATTCATCTCATTTACGCATGGATATGTTGAGAAAAAGGAAATGCTCATAGCTAGAAAACTTTATACAATGAAAGAGAAATAAGCACTGTGAAATTCGACTTTTGATCATGGATTTCATATAATGTGAATTGCTTAAATTAGAGATTTAAC (double strand) [sucA upstream fragment]”, the binding result was “binds”.

Turning to “CGGAACAAATGGATCTTCGCAAAGAATACCTTCAAATCTTTCGAGGCTCTATCAAAAGCATACTTTTGAATGCTACGATTTATGATCCGAATGGAGATGATGTTACTCCTGAAAAATTAAGAAAAGAACAGGCTCAAATCGTTAAGCCATGAATTTAATTTTGTCT (double strand) [ydfp upstream fragment]”, the binding result is “binds”.

For “GGACGAATCGCACATGAGGCTTTCCCCAACAAACGTGACAGTTTTAGAGCCTTGGGCAATTATGTAAAGAGAGGGCATGTTGAGGGTATGCGTCGGTTTCGACTCCGCGGATGCGCGCCTGAAACAAAGCTCTGGAATCGCTGTTTGGTGTAAACCATCCTTAGGCGTATGCCGTGCTATTTGCTTAGCTAACTCCGTAATGAGTTGGTTCAAACTTGTTCACCAATCCTTTTTCATTTAATCTGATATGAATATTGTAATTCAAACCGGACAGGAATAGGCAAGGAACGCGTATGAAT (double strand) [sdr3 upstream fragment]”, the binding result is given as “binds”.

On to “TGATCTGGTAACACCGAACTTATTCGAGGCTTCACAGCTGGCGAAGAAAGGACCGATCACGACACTGGAGCAGATGCAGGAAGCGGCTGCTATTATCCACGAGCGTGGTGCTAAGCATGTGCTGATCAAGGACCGTGGCAAAATTCGCGCAGGTAAAGCGATGGATCTGCTGTATGACGGAATCACTTTTGACTGGTTTGAAGCGGATGTTGTACAAACCAACTTTACCCACGGTGCAGGCTGTACCACTTCGGCTGCGGTAACGGCTGGTTTGGCACAAGGGCTGACTGTAC (double strand) [pepF upstream fragment]”, for which the binding result is listed as “binds”.
